B1: TPR t1 (parent)
chain: GACCAAUCUGCCCUCAGAGCUCGAGAACAUCUUCGGAUGCAGAGGAGGCAGGCUUCGGUGGCGCGAUAGCGCCAACGUCCUCAACCUCCAAUGCAUCCCACCACAUGAUGAUGCCUGAAGAGCCUUGGUUUUUUG

Variants of: B1
Test: polymerase ribozyme fitness, log enrichment relative to wild type (log ratio); higher = more active; in vitro selection for triplet polymerase activity
In short: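 Each subunit of a heterodimeric triplet polymerase ribozyme was represented by a PCR-built, transcribed mutant library that underwent triplicate single-round in vitro selection with frozen incubation at −7 °C. Extended constructs were recovered by gel excision, streptavidin-bead capture and RT-PCR, and Illumina sequencing of input and output libraries kept genotypes with ≥10 input reads and ≥1 read per output. Fitness is the logarithm of genotype enrichment relative to wild-type enrichment, from inverse-variance-weighted replicate averages, with a logarithm base of 2.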

Variant	polymerase ribozyme fitness (log ratio)
U7A U9G C82G	-0.227
A6U U54C C72U	0.695
U7C A91U G117U	-2.74
A6U C11U	0.0672
U7A U9C U67C C94G G113C	-7.09
A6U C70U C88A U129C	-1.84
U7C C8G C64G C85A U112G	-6.03
U7C A26G G45A	-2.55
U7A A50U	-0.856
A6U U96C C101U G122A	-0.932
A6U C72G C73U A90U C98G C102U A108U C123G	-7.4
A6U C56U C72U	0.0866
A6U C11U C80U C102U	-3.5
U7A G39A A50U C53G U130C	-4.47
U7A C22G C40U G42U C62G	-6.04
A6U C12A	0.811
A6U C12U	-0.0768
U7A C64A A95C C101A C123U	-6.03
U7A G42U G58C G71U C88U G113A	-2.19
A6U C12A C124A	0.761
U7A G10A G52A C115U	-1.15
U7A G60A U81A	-0.716
U7A C53A	-0.0334
A6U C34U	-4.08

Variant	polymerase ribozyme fitness (log ratio)
U7A C73G C82G	-1.56
U7A U9G C73U C79G A84G U96C	-2.27
A6U C70U	-0.544
A6U G60A U81A C99U	-5.5
U7C A27G G63A	-1.53
U7C C8G G61A C79A G110A	-2.75
U7A U21C C70U G71C A90G	-2.31
U7A C11A G117A	-2.2
U7A C49U G71U	-0.851
A6U G45U	-1.59
U7A G71C G110C	-6.39
U7A G39C U55C	-1.1
U7A C31U A111G	-4.76
U7A C8G G45A	0.548
U7A C40U G110A	-1.33
U7C A90C G93A G117U U132A	-4.79
U7A C11G A37U G60U G93C	-0.83
U7A U92A	-2.1
A6U C15G C40U G61C C79A	-6.15
U7A A37U U54G G127A G128U	-3.62
U7C C8G C85A U112G	-1.68
A6U C15G A37G	-1.93
U7A C124A	2.16
U7A U130A	-0.147

Variant	polymerase ribozyme fitness (log ratio)
U7A A16C	-0.994
A6U U9A A26U	-1.87
U7A C11U A27U A90C C98U	-7.09
A6U G48U C56G C82A	-1.65
U7A G47A U96A	-1.96
A6U U38G U59C C86A	-3.66
U7A C79G C123U	0.729
U7A C80U C99U C124G	-2.39
A6U G10A C22U C82A	-5.33
U7A C89G A91U C97U C115U	-1.85
U7C A27C	-2.46
A6U G60U G110U	-0.996
U7A C12G A18U G45U U54G	-3.04
A6U G39A C88A	-1.23
A6U C11G G48U C82G C85U	-0.874
U7A G17U A111C G135U	-3.91
A6U U109C C124A	-5.26
U7A C8A C40U C79G C102U G113C U129G U130A	-7.42
A6U C8U C40U A43U G48C U132A	-1.71
U7C A18G G117C	-4.72
A6U C97U	-0.46
A6U C97A	-3.55
U7A G19U U87G	-3.3
U7C A27G A46U G48U U59G G60U	-3.46

Variant	polymerase ribozyme fitness (log ratio)
U7A G61A U112G	0.622
A6U G36C G44A G77U C123G	-0.241
U7A U21C C114A	-0.182
U7A C73G C80G	-6.07
U7A A37U G71U A95G U96A	-0.194
A6U C56U C97A	-6.51
U7C C11G G65C A83U G120C A121U	-6.35
U7A A26U	-2.56
U7A C72U A91C G122U	-2.12
A6U G51C C56U	-2.91
U7A G44C C70G	-3.95
A6U G117U	-2.79
U7A C64A U106C	-5.95
A6U C56G C76U C86A A90G	-1.7
U7C A27G C62U G63A	-2.76
U7A G10A C28G C73A U109A A119G C123G	-5.03
U7A A16G U55G G61C C82U	-1.41
U7A C13U G36A G69U	-0.408
U7A U9G A46C C85G	-1.96
A6U C15U	-1.43
A6U G48U C72U C94U A111C	-0.448
U7A A18U C22G C72A	-4.55
A6U G77U U78C C86U G107C U112G	-5.66
U7A C56A C94U	-0.558

Variant	polymerase ribozyme fitness (log ratio)
A6U U33A	-4.02
U7A C72U	-0.218
A6U C53A C97U G113A	-1.91
U7A U109G	-2.9
U7A C28G	-2.71
A6U C123U	1.41
A6U C8U	0.736
U7A A66G C73G C124A	0.101
A6U C13A A16U C49A G63A C101A	-4.21
A6U C12G C89G A105C U106G	-3.35
U7A G35A G71A G77C C124A	-5.19
U7C C11A C98A	-6.8
U7A C20G G25C C34G A43C G52A G113C	-7.56
U7A G36C A37G C97U G113C	-3.07
U7A C11G U55A	0.0928
U7A C49U C53U U59A C70U C76A	-2.44
U7C C8G G17U C40A C89G A91C U126G	-4.01
A6U C31G G47A G61A A91U U112A	-7.45
A6U G52A U116C	-1.36
U7A A29G C64U C88A C104A	-1.32
A6U C20A G69U C85A	-4.42
A6U G48U C53A C88G C102A	-3.09
A6U C53G C114A U131C	-1.89
A6U U7C C102U G127C U131G	-2.65

Variant	polymerase ribozyme fitness (log ratio)
U7A G17U C62U A111C G135U	-4.01
U7A A41G	0.181
A6U C22G A41C G71U	-3.47
A6U U131A	0.0258
U7A G10A C53U G61C	-0.31
U7A G42A G60C	-2.37
A6U C124U U133G	0.942
A6U G47A C53U C56A U59A A83U	-1.88
U7A C15A C101A U112A	0.0193
A6U G36C	-1.42
A6U G36U	-1.07
U7A A43U C70G	-6.28
U7C C11U	0.539
U7C C12A C15A C20G G69U C80U C104A C114A G127C	-6.96
A6U G44U G61A A103U G122A C124G U125G	-4.72
U7A C22U G39A G44U C53U C56G G63C C124A U125A	-5.65
U7A A74G C85G	-1.49
A6U C99U C115U	-7.34
A6U G45C C72G C101U G110C	-4.94
A6U G48U G71C G117A	-3.59
U7A A50U C82U A111C	-1.72
A6U G71U G110A G127U U133G	-2.25
U7A G36A A43U U54A C101U U112A	-6.85
U7A C12U U59C	0.392

Variant	polymerase ribozyme fitness (log ratio)
U7A	0.257
U7C	0.304
U7A U106G G128C	-4.39
A6U C20G C76U G113U	-1.29
U7A A27U A50U A74C C101U	-4.66
A6U U7A A16C A46U C76A A84C A100C C124A	-5.09
U7A C12U A46U G58A	-0.311
U7C A74C C98U U112A	-2.74
A6U U30C G39U C97U C104U	-4
A6U C15A U21G G58A A90G U112C G127A	-4.37
A6U G42C A74C C79G C123G U125A	-2.83
A6U G47A C62A C123A	-1.69
U7A C8A C11G G47U G57U C85A	-2.04
U7A U87A G127A	-1.5
U7A U55A U87C	0.229
U7C A74G C79A G93A U106C G117U U129C U130C	-5.05
U7A G122U	-1.47
U7A G122A	-0.674
A6U G36U G71A G122U C124A	-1.43
A6U G61A	-0.0423
A6U C22A C49U	-4.97
U7A C40U U54A C56A C73A G77U G117A G122A	-3.15
U7A G69U C80U C99U C124G	0.126
